Test results reported in paper doi:10.1101/2024.07.02.601760, “Multi-dimensional demarcation of phylogenetic groups of plant 14-3-3 isoforms using biochemical signatures” (bioRxiv, 2024).
Substitutions are numbered along the chain they refer to. Names may count otherwise.

B1: Arabidopsis thaliana 14-3-3 iota T32F (natural protein, UniProt Q9C5W6 1-268, looked up)
chain: MSSSGSDKERETFVYMAKLSEQAERYDEMVEFMKKVARVNSELTVEERNLLSVGYKNVIGARRASWRIMSSIEQKEESKGNESNVKQIKGYRQKVEDELANICQDILTIIDQHLIPHATSGEATVFYYKMKGDYYRYLAEFKTEQERKEAAEQSLKGYEAATQAASTELPSTHPIRLGLALNFSVFYYEIMNSPERACHLAKQAFDEAIAELDTLSEESYKDSTLIMQLLRDNLTLWTSDLPEDGGEDNIKTEESKQEQAKPADATEN
notes: 14-3-3 iota, Arabidopsis thaliana, single mutant T32F made by megaprimer PCR on pET28a-14-3-3 iota; Same limits as m9; also called M1; source: E. coli BL21(DE3), purified (IMAC, thrombin cleavage of the His6-tag, subtractive IMAC, preparative SEC)
B2: Arabidopsis thaliana 14-3-3 iota G54A (natural protein, UniProt Q9C5W6 1-268, looked up)
chain: B1 chain with F32T, G54A
notes: 14-3-3 iota, Arabidopsis thaliana, single mutant G54A made by megaprimer PCR on pET28a-14-3-3 iota; Same limits as m9; also called M3; source: E. coli BL21(DE3), purified (IMAC, thrombin cleavage of the His6-tag, subtractive IMAC, preparative SEC)
B3: Arabidopsis thaliana 14-3-3 iota N84H (natural protein, UniProt Q9C5W6 1-268, looked up)
chain: B1 chain with F32T, N84H
notes: 14-3-3 iota, Arabidopsis thaliana, single mutant N84H made by megaprimer PCR on pET28a-14-3-3 iota; Same limits as m9; also called M2; source: E. coli BL21(DE3), purified (IMAC, thrombin cleavage of the His6-tag, subtractive IMAC, preparative SEC)
B4: Arabidopsis thaliana 14-3-3 iota (natural protein, UniProt Q9C5W6 1-268, looked up)
chain: B1 chain with F32T
notes: 14-3-3 iota, Arabidopsis thaliana, epsilon group; pET28a construct obtained by gene synthesis; also called iota WT; source: E. coli BL21(DE3), purified (IMAC, thrombin cleavage of the His6-tag, subtractive IMAC, preparative SEC; aliquots before preparative SEC for SEC-MALS)
B5: Arabidopsis thaliana 14-3-3 nu (natural protein, UniProt Q96300 1-265, looked up)
chain: MSSSREENVYLAKLAEQAERYEEMVEFMEKVAKTVDTDELTVEERNLLSVAYKNVIGARRASWRIISSIEQKEESRGNDDHVSIIKDYRGKIETELSKICDGILNLLDSHLVPTASLAESKVFYLKMKGDYHRYLAEFKTGAERKEAAESTLVAYKSAQDIALADLAPTHPIRLGLALNFSVFYYEILNSPDRACSLAKQAFDEAISELDTLGEESYKDSTLIMQLLRDNLTLWNSDINDEAGGDEIKEASKHEPEEGKPAETGQ
notes: 14-3-3 nu, Arabidopsis thaliana (Col-0), non-epsilon group; source: E. coli BL21(DE3), purified (IMAC, thrombin cleavage of the His6-tag, subtractive IMAC, preparative SEC; aliquots before preparative SEC for SEC-MALS)
B6: Arabidopsis thaliana 14-3-3 upsilon (natural protein, UniProt P42645 1-268, looked up)
chain: MSSDSSREENVYLAKLAEQAERYEEMVEFMEKVAKTVETEELTVEERNLLSVAYKNVIGARRASWRIISSIEQKEDSRGNSDHVSIIKDYRGKIETELSKICDGILNLLEAHLIPAASLAESKVFYLKMKGDYHRYLAEFKTGAERKEAAESTLVAYKSAQDIALADLAPTHPIRLGLALNFSVFYYEILNSSDRACSLAKQAFDEAISELDTLGEESYKDSTLIMQLLRDNLTLWTSDLNDEAGDDIKEAPKEVQKVDEQAQPPPSQ
notes: 14-3-3 upsilon, Arabidopsis thaliana (Col-0), non-epsilon group; source: E. coli BL21(DE3), purified (IMAC, thrombin cleavage of the His6-tag, subtractive IMAC, preparative SEC; aliquots before preparative SEC for SEC-MALS)
B7: Arabidopsis thaliana 14-3-3 mu (natural protein, UniProt Q96299 1-263, looked up)
chain: MGSGKERDTFVYLAKLSEQAERYEEMVESMKSVAKLNVDLTVEERNLLSVGYKNVIGSRRASWRIFSSIEQKEAVKGNDVNVKRIKEYMEKVELELSNICIDIMSVLDEHLIPSASEGESTVFFNKMKGDYYRYLAEFKSGNERKEAADQSLKAYEIATTAAEAKLPPTHPIRLGLALNFSVFYYEIMNAPERACHLAKQAFDEAISELDTLNEESYKDSTLIMQLLRDNLTLWTSDISEEGGDDAHKTNGSAKPGAGGDDAE
notes: 14-3-3 mu, Arabidopsis thaliana, epsilon group; pET28a construct obtained by gene synthesis; source: E. coli BL21(DE3), purified (IMAC, thrombin cleavage of the His6-tag, subtractive IMAC, preparative SEC; aliquots before preparative SEC for SEC-MALS)
B8: Arabidopsis thaliana 14-3-3 omega (natural protein)
chain: MASGREEFVYMAKLAEQAERYEEMVEFMEKVSAAVDGDELTVEERNLLSVAYKNVIGARRASWRIISSIEQKEESRGNDDHVTAIREYRSKIETELSGICDGILKLLDSRLIPAAASGDSKVFYLKMKGDYHRYLAEFKTGQERKDAAEHTLAAYKSAQDIANAELAPTHPIRLGLALNFSVFYYEILNSPDRACNLAKQAFDEAIAELDTLGEESYKDSTLIMQLLRDNLTLWTSD
notes: 14-3-3 omega, Arabidopsis thaliana, non-epsilion group; pET28a construct obtained by gene synthesis; source: E. coli BL21(DE3), purified (IMAC, thrombin cleavage of the His6-tag, subtractive IMAC, preparative SEC; aliquots before preparative SEC for SEC-MALS)
B9: Arabidopsis thaliana 14-3-3 lambda (natural protein, UniProt P48349 1-248, looked up)
chain: MAATLGRDQYVYMAKLAEQAERYEEMVQFMEQLVTGATPAEELTVEERNLLSVAYKNVIGSLRAAWRIVSSIEQKEESRKNDEHVSLVKDYRSKVESELSSVCSGILKLLDSHLIPSAGASESKVFYLKMKGDYHRYMAEFKSGDERKTAAEDTMLAYKAAQDIAAADMAPTHPIRLGLALNFSVFYYEILNSSDKACNMAKQAFEEAIAELDTLGEESYKDSTLIMQLLRDNLTLWTSDMQEQMDEA
notes: 14-3-3 lambda, Arabidopsis thaliana, non-epsilon group; construct provided by Prof; Robert J. Ferl; source: E. coli C41(DE3), purified (IMAC, thrombin cleavage of the His6-tag, subtractive IMAC, preparative SEC; aliquots before preparative SEC for SEC-MALS)
B10: Arabidopsis thaliana 14-3-3 chi (natural protein, UniProt P42643 1-267, looked up)
chain: MATPGASSARDEFVYMAKLAEQAERYEEMVEFMEKVAKAVDKDELTVEERNLLSVAYKNVIGARRASWRIISSIEQKEESRGNDDHVSLIRDYRSKIETELSDICDGILKLLDTILVPAAASGDSKVFYLKMKGDYHRYLAEFKSGQERKDAAEHTLTAYKAAQDIANSELAPTHPIRLGLALNFSVFYYEILNSPDRACNLAKQAFDEAIAELDTLGEESYKDSTLIMQLLRDNLTLWTSDMQDDVADDIKEAAPAAAKPADEQQS
notes: 14-3-3 chi, Arabidopsis thaliana, non-epsilon group; source: E. coli BL21(DE3), purified (IMAC, thrombin cleavage of the His6-tag, subtractive IMAC, preparative SEC; aliquots before preparative SEC for SEC-MALS)
B11: Arabidopsis thaliana 14-3-3 epsilon (natural protein, UniProt P48347 1-254, looked up)
chain: MENEREKQVYLAKLSEQTERYDEMVEAMKKVAQLDVELTVEERNLVSVGYKNVIGARRASWRILSSIEQKEESKGNDENVKRLKNYRKRVEDELAKVCNDILSVIDKHLIPSSNAVESTVFFYKMKGDYYRYLAEFSSGAERKEAADQSLEAYKAAVAAAENGLAPTHPVRLGLALNFSVFYYEILNSPESACQLAKQAFDDAIAELDSLNEESYKDSTLIMQLLRDNLTLWTSDLNEEGDERTKGADEPQDEN
notes: 14-3-3 epsilon, Arabidopsis thaliana, epsilon group; pET28a construct obtained by gene synthesis; source: E. coli BL21(DE3), purified (IMAC, thrombin cleavage of the His6-tag, subtractive IMAC, preparative SEC; aliquots before preparative SEC for SEC-MALS)
B12: Arabidopsis thaliana 14-3-3 psi (natural protein, UniProt P42644 1-255, looked up)
chain: MSTREENVYMAKLAEQAERYEEMVEFMEKVAKTVDVEELSVEERNLLSVAYKNVIGARRASWRIISSIEQKEESKGNEDHVAIIKDYRGKIESELSKICDGILNVLEAHLIPSASPAESKVFYLKMKGDYHRYLAEFKAGAERKEAAESTLVAYKSASDIATAELAPTHPIRLGLALNFSVFYYEILNSPDRACSLAKQAFDDAIAELDTLGEESYKDSTLIMQLLRDNLTLWTSDMTDEAGDEIKEASKPDGAE
notes: 14-3-3 psi, Arabidopsis thaliana, non-epsilon group; construct provided by Prof; Robert J. Ferl; source: E. coli C41(DE3), purified (IMAC, thrombin cleavage of the His6-tag, subtractive IMAC, preparative SEC; aliquots before preparative SEC for SEC-MALS)
B13: Arabidopsis thaliana 14-3-3 phi (natural protein, UniProt P46077 1-267, looked up)
chain: MAAPPASSSAREEFVYLAKLAEQAERYEEMVEFMEKVAEAVDKDELTVEERNLLSVAYKNVIGARRASWRIISSIEQKEESRGNDDHVTTIRDYRSKIESELSKICDGILKLLDTRLVPASANGDSKVFYLKMKGDYHRYLAEFKTGQERKDAAEHTLTAYKAAQDIANAELAPTHPIRLGLALNFSVFYYEILNSPDRACNLAKQAFDEAIAELDTLGEESYKDSTLIMQLLRDNLTLWTSDMQDESPEEIKEAAAPKPAEEQKEI
notes: 14-3-3 phi, Arabidopsis thaliana, non-epsilon group; construct provided by Prof; Robert J. Ferl; source: E. coli C41(DE3), purified (IMAC, thrombin cleavage of the His6-tag, subtractive IMAC, preparative SEC; aliquots before preparative SEC for SEC-MALS)

Experiments:
[1] = target: the molecule itself; experiment: native gel or EMSA; native PAGE, Tris-glycine pH 8.6, 15% or 15-25% gradient acrylamide, 2 h at room temperature, samples 0.33 mg/ml in SEC buffer; self-association, dimer to monomers
[2] = target: the molecule itself; experiment: SEC-MALS; Superdex 200 Increase 10/300, 0.8 ml/min; 65 µl of ~3 mg/ml or 100 μM per monomer loaded; 20 mM Tris-HCl pH 7.5, 150 mM NaCl, 5 mM βME, 3 mM NaN3; samples before preparative SEC; self-association, monomers to dimer (small tetramer peak for six isoforms)

Protein | binding result [1] | stoichiometry N [2]
B1 | binds | –
B2 | binds | –
B3 | binds | –
B4 | – | 2
B5 | – | 2
B6 | – | 2
B7 | – | 2
B8 | – | 2
B9 | – | 2
B10 | – | 2
B11 | – | 2
B12 | – | 2
B13 | – | 2
